Usually Km stands for the substrate concentration at which the rate is half of its maximum.

Substrate in the series: NCC(=O)CCC(=O)O
The series can be described thus: The Michaelis-Menten rate of reaction catalyzed by ALA dehydratase from Bacillus subtilis measured spectrophotometrically.

B1: Delta-aminolevulinic acid dehydratase (Homo sapiens), P13716 (protein)
chain: MQPQSVLHSGYFHPLLRAWQTATTTLNASNLIYPIFVTDVPDDIQPITSLPGVARYGVKRLEEMLRPLVEEGLRCVLIFGVPSRVPKDERGSAADSEESPAIEAIHLLRKTFPNLLVACDVCLCPYTSHGHCGLLSENGAFRAEESRQRLAEVALAYAKAGCQVVAPSDMMDGRVEAIKEALMAHGLGNRVSVMSYSAKFASCFYGPFRDAAKSSPAFGDRRCYQLPPGARGLALRAVDRDVREGADMLMVKPGMPYLDIVREVKDKHPDLPLAVYHVSGEFAMLWHGAQAGAFDLKAAVLEAMTAFRRAGADIIITYYTPQLLQWLKEE
Regarding B1, the Km was 241 µM [middle of 4 runs].

The values above are taken from ChEMBL document CHEMBL1128918, “Deuterium isotope effects on porphobilinogen synthesis catalysed by 5-aminolaevulinic acid dehydratase” (Bioorg Med Chem Lett, 1996).
